Data from the nanobody polyreactivity screen of Harvey et al. (2022).

Test: yeast display, Sf9 membrane polyspecificity reagent, FACS + sequencing; frameworks hold sequencing errors
Summary of the method: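 A nanobody's polyreactivity label depends on the gate it was sorted from. Yeast display cells were stained with 10% biotinylated, detergent-solubilized Sf9 membrane reagent for 1 hour at 4 °C, enriched on streptavidin microbeads and sorted by FACS. The low and high (top ~1%) gates were set on anti-HA fluorescence for expression and streptavidin fluorescence for reagent binding.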

Row | Sequence | polyreactivity (PSR sort gate)
1 | QVQLVESGGGLVQAGGSLRLSCAASGRTFRWYAMGWYRQAPGKERELVAAISQSGGSTYYADSVKGRFTISRDNAKNSVYLQMNSLKPVDTAVYYCAKVTYRGYYSWGQGTQLTVSS | high polyreactivity
2 | QVQLVESGGGLVQAGGSLRLSCAASGRTFRWYAMGWYRQAPGKERELVADISSVGSTDYADSVKGRFTISRDNAKNTVYLQMNSLKPEDTAVYYCAADFSPRRYHNRSFGYWGQGTQVTVSS | low polyreactivity
3 | QVQLVESGGGLVQAGGSLRLSCAASGRTFRWYAMGWYRQAPGKERELVATITSGGSTNYADSVKGRFTISRDNAKNSVYLQMNSLKPEDTAVYYCAAWSYAYYYRLRYVSHDYWGQGTQVTVSS | high polyreactivity
4 | QVQLVESGGGLVQAGGSLRLSCAASGRTFRWYTLGWYRQAPGKERELVAAITSRGGSTYADSVKGRFTISRDNAKNTVYLQMNSLKPEDTAVYYCNAARTYQYDYWGQGTQVTVSS | high polyreactivity
5 | QVQLVESGGGLVQAGGSLRLSCAASGRTFRYNAMGWYRQAPGKERELVAAIRYSGGRTYADSVKGRFTISRDNAKNTVYLQMNSLKPEDTAVYYCNADSIRRGYRYDYWGQGTQVTVSS | high polyreactivity
6 | QVQLVESGGGLVQAGGSLRLSCAASGRTFRYNAMGWYRQAPGKERELVAAISASGGSTYYADSVKGRFTISRDNAKNTVYLQMNSLKPEDTAVYYCATYYRVGYDYWGQGTQVTVSS | high polyreactivity
7 | QVQLVESGGGLVQAGGSLRLSCAASGRTFRYNAMGWYRQAPGKERELVAAISGSGGITYYADSVKGRFTISRDNAKNTVYLQMNSLKPEDTAVYYCAAVYRYNSDPDYDYWGQGTQVTVSS | high polyreactivity
8 | QVQLVESGGGLVQAGGSLRLSCAASGRTFRYNAMGWYRQAPGKERELVAAITWSGGSTYYADSVKGRFTISRDNAKNTVYLQMNSLKPEDTAVYYCAKGRRRSHPYDYWGQGTQVTVSS | high polyreactivity
9 | QVQLVESGGGLVQAGGSLRLSCAASGRTFRYNAMGWYRQAPGKERELVARISRGGSTYADSVKGRFTISRDNAKNTVYLQMNSLKPEDTAVYYCAAYPTKHNQSEYYYWGQGTQVTVSS | low polyreactivity
10 | QVQLVESGGGLVQAGGSLRLSCAASGRTFRYNAMGWYRQAPGKERELVASIRYSSASTYYADSVKGRFTISRDNAKNTVYLQMNSLKPVDTAVYYCAASWYPVFVGYDYWGQGTQVTVSS | high polyreactivity
11 | QVQLVESGGGLVQAGGSLRLSCAASGRTFRYNTMGWYRQAPGKERELVAAITWSGGRTYYADSVKGRFTISRDNAKNTVYLQMNSLNPEDTAVYYCNADVPYSRSIYGFYYWGQGTQVTVSS | high polyreactivity
12 | QVQLVESGGGLVQAGGSLRLSCAASGRTFRYYAMGWYRQAPGKEREFVAAITKRGGSTYYADSVKGRFTISRDNAKNTVYLQMNSLKAEDTAVYYCAADTSTWAHTRGYDYWGQGTQVTVSS | high polyreactivity
13 | QVQLVESGGGLVQAGGSLRLSCAASGRTFRYYAMGWYRQAPGKEREFVAAITRSAVSTYYADSVKGRFTISRDNAKNTVYLQMNSLKPEDTAIYYCAVDSSLVKVGFDYWGQGTQVTVSS | high polyreactivity
14 | QVQLVESGGGLVQAGGSLRLSCAASGRTFRYYAMGWYRQAPGKEREFVASIRRGGGSTYYADSVKGRFTISRDNAKNTVYLQMNSLKPEDTAVYYCAAQPYTLSLFRLNYDYWGQGTQVTVSS | low polyreactivity
15 | QVQLVESGGGLVQAGGSLRLSCAASGRTFRYYAMGWYRQAPGKERELVAAISRGDSTHYADSVKGRFTISRDNAKNTVYLQMNSLKPEDTAVDYCAAYRGRSVDRQPYYCGQGTQVTVSS | high polyreactivity
16 | QVQLVESGGGLVQAGGSLRLSCAASGRTFRYYAMGWYRQAPGKERELVAAISSGGRTNYADSVKGRFTISRDNAKNTVYLQMNSLKPEDTAVYYCAARNTRFWYQNNLYDYWGQGTQVTVSS | high polyreactivity
17 | QVQLVESGGGLVQAGGSLRLSCAASGRTFRYYAMGWYRQAPGKERELVAAISWNGANTYYADSVKGRFTISRDNAKNTVYLQMNSLKPEDTAVYYCAANYYRWKGYDYWGQGTQVTVSS | high polyreactivity
18 | QVQLVESGGGLVQAGGSLRLSCAASGRTFRYYAMGWYRQAPGKERELVAAITSADSTNYADSVKGRFTISRDNAKNTVYLQMNSLKPEDTAVYYCAAGYVYQAAAKYGRIFWGYDSWGQGSQVTVSS | low polyreactivity
19 | QVQLVESGGGLVQAGGSLRLSCAASGRTFRYYAMGWYRQAPGKERELVATISKSGGSTYYADSVKGRFTISRDNAKNTVYLQMNSLKPVDTAVYYCAAVGPYRWYDYWGQGTQVTVSS | high polyreactivity
20 | QVQLVESGGGLVQAGGSLRLSCAASGRTFRYYDMGWYRQAPGKERELVAAITSRGGSTYYADSVKGRFTISRDNAKNTVYLQMNSLIPEDTAVYDCNAYPVQIFYLGNRQYNYWGHGTQVTVSS | high polyreactivity
21 | QVQLVESGGGLVQAGGSLRLSCAASGRTFRYYDMGWYRQATGKERELVARISISGAGTYYADSVKGRFTISRDNAKNTVYLQINSLKPEDTAVYYCAADLFWWQKTNSGGDYWGQGTQVTVSS | low polyreactivity
22 | QVQLVESGGGLVQAGGSLRLSCAASGRTFRYYGMGWYRQAPGKERELVAAISWSGGSTYYADSVKGRYTISRDNAKNSVYLQMNSLKPEDTAVYYCAADGQYYYGFDYWGQGTQVTVSS | high polyreactivity

Row | Sequence | polyreactivity (PSR sort gate)
23 | QVQLVESGGGLVQAGGSLRLSCAASGRTFRYYTMGWYRQAPGKERELVAAITVGSRTNYADSEKGRFTISRDNAKNTVYFQMNSLKAEDTAVYYCARRSYYQYRYDYWGQGTQVTVSS | high polyreactivity
24 | QVQLVESGGGLVQAGGSLRLSCAASGRTFRYYVMGWYRQAPGKERELVARISWSGARTYYADSVKGRFTISRDHAKNTVYLQMNSLKPEDTAVYYCAADNPYYYRRDYWGQGTQVTVSS | low polyreactivity
25 | QVQLVESGGGLVQAGGSLRLSCAASGRTFSAYAMGWSRQAPGKERELVAAISRSGGRTYYADSVKGRFTISRDNAKNTVYLQMNSLKPEDTAVYYCAAGSNIWGQGTQVTVSS | high polyreactivity
26 | QVQLVESGGGLVQAGGSLRLSCAASGRTFSAYAMGWYRQAPGKERELVARITSVDSTNYADSVKGRFTISRDNAKNTVYLQMNSLKPDDTAVYYCNATFVFPFVDYDDYWGQGTQVTVSS | low polyreactivity
27 | QVQLVESGGGLVQAGGSLRLSCAASGRTFSENAMGWYRQARGKERELVAAISGSGGRTYYADSVKGRFTISRDNAKNTVYLQMNSLKPEDTAVYYCAKVTRYGSTYDYWGQGTQVTVSS | high polyreactivity
28 | QVQLVESGGGLVQAGGSLRLSCAASGRTFSEYAMGWYRQAPGKERELVAAITENGGSTYYADSVKGRFTISRDNAKNTVYLQMNSLKPEDTAVYYCAAETWADWYSEFYWGQGTQVTVSS | high polyreactivity
29 | QVQLVESGGGLVQAGGSLRLSCAASGRTFSFYAMGLYRQAPGKERELVAAIRSDGGTTYYADSVKGRFTISRVNGKNTVYLQMNSLKPEDTAVYYCNTQSFYFVSFSSSRYLRYYWGQGTQVTVSS | low polyreactivity
30 | QVQLVESGGGLVQAGGSLRLSCAASGRTFSGNAMGWYRQAPGKERELVATITRRGGSTYYADSVKGRFTISRDNAKNTVYLQMNSLKPEDNAVYYCAARRVVNGGQGYESWGQGTQVTVSS | high polyreactivity
31 | QVQLVESGGGLVQAGGSLRLSCAASGRTFSGYAMGWYRQAPGKERELVAAISSGGGSTYYADSVKGRFTISRDIAKNTVYLQMNSLKPEDTAVYYCAADGYPGDYDYWGQGTQVTVSS | low polyreactivity
32 | QVQLVESGGGLVQAGGSLRLSCAASGRTFSGYAMGWYRQAPGKERELVAVITYSGGSTYYADSVKGRFTISRDNAKNTVYLQMNSLKPEDTAVYYCNADYVIFYQLVDYDYWGQGTQVTVSS | low polyreactivity
33 | QVQLVESGGGLVQAGGSLRLSCAASGRTFSINAMGWYRQAPGKEREMVADITKRGSTYYADSVKGRFTISRDNAKNTVYLQMNSLKREDTAVYYCNARYRGRVYDRFGYWGQGTQVTVSS | high polyreactivity
34 | QVQLVESGGGLVQAGGSLRLSCAASGRTFSIYAMGWYRQAPGKERELVASITGRGGSTYYADSVKGRFTISRDNAKNTVYLQMNSLKPEDTAVYYCAADSYKPDGYRLRNDYWGQGTQVTVSS | high polyreactivity
35 | QVQLVESGGGLVQAGGSLRLSCAASGRTFSIYAMGWYRQAPGKERELVASITNSDGSTYYADSVKGRFTISRDNAKNTVYLQMNSLKPEDTAVYYCNVDSGQSWSLWTYVQYDDYWGQGTQVTVSS | low polyreactivity
36 | QVQLVESGGGLVQAGGSLRLSCAASGRTFSKNTMGWYRKAPGKERELVASITRRGGSTYYADSVKGRFTISRDNAKNTVYLQMKSLKPEDTAVYYCAVRWRDYRGSYRGFEYWGQGTQVTVSS | high polyreactivity
37 | QVQLVESGGGLVQAGGSLRLSCAASGRTFSKYAMGWYRQAPGKERELVASITWSGGTTNYADSVKGRFTISRDNAKNTVYLQMNSLKPEDTAVYYCNADGYLAERFFIRLDEYRDYDYWGQGTQVTVSS | low polyreactivity
38 | QVQLVESGGGLVQAGGSLRLSCAASGRTFSKYTMGRYRQAHGKEMEFGAAISYSGGSTYYADSVKGRFTISRDYAKKTVYLQMNSLKPEDTAVYYCAARASTYKYYYWGQGTQVTVSS | high polyreactivity
39 | QVQLVESGGGLVQAGGSLRLSCAASGRTFSNYAMGWYRQAPGKERELVAAISQRGGSTYYADSVKGRFTISRDNAKITVYLQMNSLKPEDTAVYYCNALFRLRAYADMDYWGQGTQVTVSS | high polyreactivity
40 | QVQLVESGGGLVQAGGSLRLSCAASGRTFSPNSMVWYRPAPGKERELVAAITRSDGRTYYADSVKGRFTISRDNAKNTVYLQMNSLKPEDTAVYYCAVDGYYPPAWYEYDYWGQGTQVTVSS | high polyreactivity
41 | QVQLVESGGGLVQAGGSLRLSCAASGRTFSRNAMGRYRQAPGKERELVATITSDGSTNYADSVKGRFTISRDNAKNTVYLQMNSLKPEDTAVYYCAAGEQSSIIGAHDYWGQGTQVTVSS | low polyreactivity
42 | QVQLVESGGGLVQAGGSLRLSCAASGRTFSRNAMGWYRQAPGKERELVATISSSGVRTYYADSVKGRFTISRDNAKNTVYVQMNSLKPEDTGVYYCAAALRYFSAASGYDYWGQGTQVTVTS | low polyreactivity
43 | QVQLVESGGGLVQAGGSLRLSCAASGRTFSRYAMGWYRQAPGKERELVAAITSGGSTYYADSVKGRFTISRDNAKNTVYLQMNSLKPEDTAVYYCAAVWRYGYSDGGYWGLGTQVTVSS | high polyreactivity
